For the assay, the target named is recombinant human FcγRI receptor (CD64) (UniProt P12314). Kind of assay: SPR. To be noted: immobilized human FcγRI (CD64); parent: est. 100; read off a plot.
Sequence of recombinant human FcγRI receptor (CD64) (P12314 16-374): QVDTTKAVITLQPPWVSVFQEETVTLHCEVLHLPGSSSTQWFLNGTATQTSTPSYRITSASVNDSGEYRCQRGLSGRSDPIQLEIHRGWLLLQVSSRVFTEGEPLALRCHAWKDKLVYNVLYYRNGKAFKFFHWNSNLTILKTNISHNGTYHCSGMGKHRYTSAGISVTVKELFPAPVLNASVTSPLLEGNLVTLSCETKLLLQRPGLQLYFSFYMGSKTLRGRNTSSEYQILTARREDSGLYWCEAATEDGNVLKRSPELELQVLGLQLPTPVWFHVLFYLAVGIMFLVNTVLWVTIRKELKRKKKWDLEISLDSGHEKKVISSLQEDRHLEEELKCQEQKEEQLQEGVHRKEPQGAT
IgG1 (control) DAPA: the percent of parent turned out to be 34%.

In the case of IgG1 (control) Agly, the percent of parent was determined as 24%.

As to IgG1 (control) LALE, the percent of parent was 8%.

On to IgG1 (control) FES, for which the percent of parent is 21%.

Turning to IgG1 (control) LALA, the percent of parent was determined as 27%.

With IgG1 (control) LGGR, the percent of parent stood at 6%.

With IgG1 (control) FQQ, the percent of parent stood at 32%.

Turning to IgG1 (control) Sigma, the percent of parent was determined as 3.5%.

Consider IgG1 (control) LAGA, for which the percent of parent came out at 8.5%.

Turning to IgG1 (control) LALAKA, the percent of parent is 26%.

For the origin of these results see paper PMC9889962.
